*1 amine or outer side, *2 acyl side, *3 side chain or, on linkers, in order; H or OH if unused. Bridges are numbered along the chain shown (N, C = ends). Primed or numbered codes have the meaning given here. Where no end group is shown, it is not given here. Side-chain parts run from the residue outwards. [ ]: non-standard residue; d: D form. The star is where a group is joined. NOPO = NOPO chelator, O=C(CCP(=O)(O)CN1CCN(CP(=O)(O)CO)CCN(CP(=O)(O)CO)CC1)*; (dE)(AGLU) = D-glutamic acid bearing 1-amino-1-deoxy-D-glucitol; 2,6‑lutidylidene = 2Lut, Cys-Cys crosslink via 2,6-lutidylidene; APAc″ = 4-amino-1-carboxymethylpiperidine, NC1CCN(CC(=O)*)CC1; dE(AGLU) = D-glutamic acid bearing 1-amino-1-deoxy-D-glucitol; Pro(trans-4-NH2) = O=C([C@@H]1C[C@@H](N[*:3])CN1[*:1])[*:2]; DOTA = O=C(O)CN1CCN(CC(=O)O)CCN(CC(=O)*)CCN(CC(=O)O)CC1; NODAGA = O=C(O)CN1CCN(CC(=O)O)CCN(C(CCC(=O)*)C(=O)O)CC1; N4Ac = bis-(2-amino-ethylamine)-methyl-propionic acid; 2Lut = 2,6-lutidylidene bridge between two thiols; Trp(5-Cl) = N[C@@H](Cc1c[nH]c2ccc(Cl)cc12)C(=O)O; Pyridine(2,6-diCH2) = c1cc(C[*:1])nc(C[*:2])c1; 2Lut″ = 2,6-lutidylidene linking two thiols; APAc = 4-amino-1-carboxymethylpiperidine; Glutaryl = O=C(CCCC(=O)[*:2])[*:1]; PEG6 = NCCOCCOCCOCCOCCOCCOCCC(=O)O; AGLU = 1-amino-1-deoxy-D-glucitol; Hyp = O=C(O)[C@@H]1C[C@@H](O)CN1; pS = N[C@@H](COP(=O)(O)O)C(=O)O; dGlu(AGLU) = not defined here; Aic = NC1(C(=O)O)Cc2ccccc2C1; hCys = N[C@@H](CCS)C(=O)O; hSer = N[C@@H](CCO)C(=O)O; Ac5c = NC1(C(=O)O)CCCC1; Api = NC1(C(=O)O)CCNCC1; Dab = NCC[C@H](N)C(=O)O; Thp = NC1(C(=O)O)CCOCC1; AEEA = NCCOCCOCC(=O)O Some results are limits rather than exact numbers.

The labels stand for the following.
B1: DOTA-O2Oc-glu(AGLU)-Asp-Trp-5Clw-Tap-Glu-leu-[Cys(2Lut)-Thp-Leu-Ile-Cys]-APAc-glu(AGLU)-NH2 (peptide)
peptide: DW[Trp(5-Cl)][Pro(trans-4-NH2)]E[dL]C[Thp]LIC-{APAc-(dE)(AGLU)-NH2}
modifications: linker 7-11 via Pyridine(2,6-diCH2); not fully specified (N-terminus); printed as DOTA-O2Oc-glu(AGLU)-Asp-Trp-5Clw-Tap-Glu-leu-[Cys(2Lut)-Thp-Leu-Ile-Cys]-APAc-glu(AGLU)-NH2
B2: Ac-Pse-Trp-5Clw-Hyp-Glu-leu-[Cys(2Lut)-Thp-Leu-Ile-Cys]-NH2 (peptide)
peptide: Ac-[pS]W[Trp(5-Cl)][Hyp]E[dL]C[Thp]LIC-NH2
modifications: linker 7-11 via Pyridine(2,6-diCH2)
SMILES: CC[C@H](C)[C@@H]1NC(=O)[C@H](CC(C)C)NC(=O)C2(CCOCC2)NC(=O)[C@@H](NC(=O)[C@@H](CC(C)C)NC(=O)[C@H](CCC(=O)O)NC(=O)[C@@H]2C[C@@H](O)CN2C(=O)[C@H](Cc2c[nH]c3ccc(Cl)cc23)NC(=O)[C@H](Cc2c[nH]c3ccccc23)NC(=O)[C@H](COP(=O)(O)O)NC(C)=O)CSCc2cccc(n2)CSC[C@@H](C(N)=O)NC1=O
B3: DOTA-PEG6-glu(AGLU)-Asp-Trp-5Clw-Tap-Glu-leu-[Cys(2Lut)-Thp-Leu-Ile-Cys]-APAc-glu(AGLU)-NH2 (peptide)
peptide: DW[Trp(5-Cl)][Pro(trans-4-NH2)]E[dL]C[Thp]LIC-{APAc-(dE)(AGLU)-NH2}
modifications: linker 7-11 via Pyridine(2,6-diCH2); not fully specified (N-terminus); printed as DOTA-PEG6-glu(AGLU)-Asp-Trp-5Clw-Tap-Glu-leu-[Cys(2Lut)-Thp-Leu-Ile-Cys]-APAc-glu(AGLU)-NH2

Sequence of human Gastric Inhibitory Peptide Receptor (human) (P48546 22-466 limits assumed): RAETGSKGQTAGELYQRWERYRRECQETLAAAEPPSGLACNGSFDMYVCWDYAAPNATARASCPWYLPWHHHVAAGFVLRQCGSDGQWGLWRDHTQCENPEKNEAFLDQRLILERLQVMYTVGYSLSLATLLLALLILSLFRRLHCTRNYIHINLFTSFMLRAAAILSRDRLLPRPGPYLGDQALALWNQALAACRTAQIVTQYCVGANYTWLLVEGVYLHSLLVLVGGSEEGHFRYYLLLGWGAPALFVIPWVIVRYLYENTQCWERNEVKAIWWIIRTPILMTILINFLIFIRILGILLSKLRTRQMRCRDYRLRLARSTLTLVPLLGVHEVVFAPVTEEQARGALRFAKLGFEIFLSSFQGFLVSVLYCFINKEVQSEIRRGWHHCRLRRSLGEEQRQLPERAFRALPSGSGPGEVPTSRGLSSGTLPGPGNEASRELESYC

This test concerns the target human Gastric Inhibitory Peptide Receptor (human) (UniProt P48546). The test is described as follows: FACS competition with GIP-057 on CHO-K1-hGIPR cells; pIC50 category A: >8.0.
Consider B1, for which the pIC50 was above 8 pic50. Molecule B2 returned a pIC50 above 8 pic50. As for {AGLU-Glutaryl}-DW[Trp(5-Cl)][Pro(trans-4-NH2)]E[dL]C[Api](NODAGA)LIC-{APAc-dE(AGLU)-NH2} (linker 7-11 via Pyridine(2,6-diCH2)) [AGLU-Glutar-Asp-Trp-5Clw-Tap-Glu-leu-[Cys(2Lut)-Apc(NODAGA)-Leu-Ile-Cys]-APAc-glu(AGLU)-NH2], the pIC50 was above 8 pic50.

With W[Trp(5-Cl)][Pro(trans-4-NH2)]E[dL]C[Api](DOTA)LIC-{APAc-dE(AGLU)-NH2} (linker 6-10 via 2Lut; not fully specified (N-terminus)) [HO-Succinyl-Trp-5Clw-Tap-Glu-leu-[Cys(2Lut)-Apc(DOTA)-Leu-Ile-Cys]-APAc-glu(AGLU)-NH2], the pIC50 was above 8 pic50. In the case of Ac-DW[Trp(5-Cl)][Hyp]E[dL][hCys][Thp]LI[hCys]-NH2 (linker 7-11 via Pyridine(2,6-diCH2)) [Ac-Asp-Trp-5Clw-Hyp-Glu-leu-[Hcy(2Lut)-Thp-Leu-Ile-Hcy]-NH2], the pIC50 is above 8 pic50. For {DOTA-dE(AGLU)}-DW[Trp(5-Cl)][Pro(trans-4-NH2)]E[dL]C[Thp]LIC-{APAc-dE(AGLU)-NH2} (linker 7-11 via Pyridine(2,6-diCH2)) [DOTA-glu(AGLU)-Asp-Trp-5Clw-Tap-Glu-leu-[Cys(2Lut)-Thp-Leu-Ile-Cys]-APAc-glu(AGLU)-NH2], the pIC50 was above 8 pic50.

The molecule {DOTA-dE(AGLU)}-DW[Trp(5-Cl)][Hyp]E[dL]C[Thp]LIC-{APAc-dE(AGLU)-NH2} (linker 7-11 via Pyridine(2,6-diCH2)) [DOTA-glu(AGLU)-Asp-Trp-5Clw-Hyp-Glu-leu-[Cys(2Lut)-Thp-Leu-Ile-Cys]-APAc-glu(AGLU)-NH2] returned a pIC50 above 8 pic50.

{DOTA-dGlu(AGLU)-PEG6}-DW[Trp(5-Cl)][Pro(trans-4-NH2)]E[dL]C[Thp]LIC-{APAc-dGlu(AGLU)-NH2} (linker 7-11 via 2Lut; reading uncertain) [DOTA-glu(AGLU)-PEG6-Asp-Trp-5Clw-Tap-Glu-leu-[Cys(2Lut)-Thp-Leu-Ile-Cys]-APAc-glu(AGLU)-NH2]: the pIC50 is above 8 pic50. Regarding {AGLU-Glutaryl}-[hSer]W[Trp(5-Cl)][Pro(trans-4-NH2)]E[dL]C[Api](DOTA)LIC-{APAc-dE(AGLU)-NH2} (linker 7-11 via Pyridine(2,6-diCH2)) [AGLU-Glutar-Hse-Trp-5Clw-Tap-Glu-leu-[Cys(2Lut)-Apc(DOTA)-Leu-Ile-Cys]-APAc-glu(AGLU)-NH2], the pIC50 was above 8 pic50. In turn, {AGLU-Glutaryl}-DW[Trp(5-Cl)][Pro(trans-4-NH2)]E[dL]C[Dab](DOTA)LIC-{APAc-dE(AGLU)-NH2} (linker 7-11 via Pyridine(2,6-diCH2)) [AGLU-Glutar-Asp-Trp-5Clw-Tap-Glu-leu-[Cys(2Lut)-Dab(DOTA)-Leu-Ile-Cys]-APAc-glu(AGLU)-NH2] yielded a pIC50 above 8 pic50. In turn, {AGLU-Glutaryl}-DW[Trp(5-Cl)][Pro(trans-4-NH2)]E[dL]C[Api]([Gly-NODAGA])LIC-{APAc-dE(AGLU)-NH2} (linker 7-11 via Pyridine(2,6-diCH2)) [AGLU-Glutar-Asp-Trp-5Clw-Tap-Glu-leu-[Cys(2Lut)-Apc(NODAGA-Gly)-Leu-Ile-Cys]-APAc-glu(AGLU)-NH2] showed a pIC50 above 8 pic50. For the molecule Ac-DW[Trp(5-Cl)][Hyp]N[dL]C[Thp]LIC-NH2 (linker 7-11 via Pyridine(2,6-diCH2)) [Ac-Asp-Trp-5Clw-Hyp-Asn-leu-[Cys(2Lut)-Thp-Leu-Ile-Cys]-NH2], the pIC50 was above 8 pic50. Molecule {AGLU-Glutaryl}-DW[Trp(5-Cl)][Pro(trans-4-NH2)]E[dL]CK(DOTA)LIC-{APAc-dE(AGLU)-NH2} (linker 7-11 via 2,6‑lutidylidene) [AGLU-Glutar-Asp-Trp-5Clw-Tap-Glu-leu-[Cys(2Lut)-Lys(DOTA)-Leu-Ile-Cys]-APAc-glu(AGLU)-NH2] returned a pIC50 above 8 pic50. The same measure for {AGLU-Glutaryl-APAc″}-DW[Trp(5-Cl)][Hyp]E[dL]C[Api](DOTA)LIC-{dE(AGLU)-NH2} (linker 7-11 via Pyridine(2,6-diCH2)) [AGLU-Glutar-APAc-Asp-Trp-5Clw-Hyp-Glu-leu-[Cys(2Lut)-Apc(DOTA)-Leu-Ile-Cys]-glu(AGLU)-NH2]: above 8 pic50.

{AGLU-Glutaryl}-DW[Trp(5-Cl)][Pro(trans-4-NH2)]E[dL]C[Api](NOPO)LIC-{APAc-dE(AGLU)-NH2} (linker 7-11 via Pyridine(2,6-diCH2)) [AGLU-Glutar-Asp-Trp-5Clw-Tap-Glu-leu-[Cys(2Lut)-Apc(NOPO)-Leu-Ile-Cys]-APAc-glu(AGLU)-NH2]: the pIC50 was above 8 pic50. Ac-DW[Trp(5-Cl)][Hyp]E[dL]C[Thp]LI[hCys]-NH2 (linker 7-11 via Pyridine(2,6-diCH2)) [Ac-Asp-Trp-5Clw-Hyp-Glu-leu-[Cys(2Lut)-Thp-Leu-Ile-Hcy]-NH2] returned a pIC50 above 8 pic50. Take {AGLU-Glutaryl}-DW[Trp(5-Cl)][Pro(trans-4-NH2)]E[dL]C[Api](N4Ac)LIC-{APAc-dE(AGLU)-NH2} (linker 7-11 via Pyridine(2,6-diCH2)) [AGLU-Glutar-Asp-Trp-5Clw-Tap-Glu-leu-[Cys(2Lut)-Apc(N4Ac)-Leu-Ile-Cys]-APAc-glu(AGLU)-NH2]: the pIC50 is above 8 pic50. As to Ac-DW[Trp(5-Cl)][Hyp]E[dL][hCys][Thp]LIC-NH2 (linker 7-11 via Pyridine(2,6-diCH2)) [Ac-Asp-Trp-5Clw-Hyp-Glu-leu-[Hcy(2Lut)-Thp-Leu-Ile-Cys]-NH2], the pIC50 is above 8 pic50.

On to Ac-QW[Trp(5-Cl)][Hyp]E[dL]C[Thp]LIC-NH2 (linker 7-11 via 2Lut″) [Ac-Gln-Trp-5Clw-Hyp-Glu-leu-[Cys(2Lut)-Thp-Leu-Ile-Cys]-NH2], for which the pIC50 is above 8 pic50. {DOTA-dGlu(AGLU)-AEEA}-DW[Trp(5-Cl)][Pro(trans-4-NH2)]E[dL]C[Thp]LIC-{APAc-dGlu(AGLU)-NH2} (linker 7-11 via 2Lut; reading uncertain) [DOTA-glu(AGLU)-O2Oc-Asp-Trp-5Clw-Tap-Glu-leu-[Cys(2Lut)-Thp-Leu-Ile-Cys]-APAc-glu(AGLU)-NH2] displayed a pIC50 above 8 pic50. B3 returned a pIC50 above 8 pic50. In turn, Ac-DW[Trp(5-Cl)][Hyp]E[dL]C[Ac5c]LIC-NH2 (linker 7-11 via Pyridine(2,6-diCH2)) [Ac-Asp-Trp-5Clw-Hyp-Glu-leu-[Cys(2Lut)-Eca-Leu-Ile-Cys]-NH2] came in with a pIC50 above 8 pic50. The molecule Ac-DW[Trp(5-Cl)][Hyp]E[dL]C[Aic]LIC-NH2 (linker 7-11 via Pyridine(2,6-diCH2)) [Ac-Asp-Trp-5Clw-Hyp-Glu-leu-[Cys(2Lut)-Aic-Leu-Ile-Cys]-NH2] displayed a pIC50 above 8 pic50.

Values taken from patent US20250296971A1, “GASTRIC INHIBITORY PEPTIDE RECEPTOR LIGANDS” (priority 2021, published 2025).
